Experimental data taken from US20260077004A1 (UNIVERSITY OF MASSACHUSETTS, published 2026).

Target: wild-type KCNH2 (human, UniProt Q12809 1-1159)
Assay: cell-based or functional assay

Binder	reduction in sustained current (IKr) relative to GFP control cells, CHO cells [%]	reduction in tail current (IKr) relative to GFP control cells, CHO cells [%]
full-length G628S KCNH2 (other) MPVRRGHVAPQNTFLDTIIRKFEGQSRKFIIANARVENCAVIYCNDGFCELCGYSRAEVMQRPCTCDFLHGPRTQRRAAAQIAQALLGAEERKVEIAFYRKDGSCFLCLVDVVPVKNEDGAVIMFILNFEVVMEKDMVGSPAHDTNHRGPPTSWLAPGRAKTFRLKLPALLALTARESSVRSGGAGGAGAPGAVVVDVDLTPAAPSSESLALDEVTAMDNHVAGLGPAEERRALVGPGSPPRSAPGQLPSPRAHSLNPDASGSSCSLARTRSRESCASVRRASSADDIEAMRAGVLPPPPRHASTGAMHPLRSGLLNSTSDSDLVRYRTISKIPQITLNFVDLKGDPFLASPTSDREIIAPKIKERTHNVTEKVTQVLSLGADVLPEYKLQAPRIHRWTILHYSPFKAVWDWLILLLVIYTAVFTPYSAAFLLKETEEGPPATECGYACQPLAVVDLIVDIMFIVDILINFRTTYVNANEEVVSHPGRIAVHYFKGWFLIDMVAAIPFDLLIFGSGSEELIGLLKTARLLRLVRVARKLDRYSEYGAAVLFLLMCTFALIAHWLACIWYAIGNMEQPHMDSRIGWLHNLGDQIGKPYNSSGLGGPSIKDKYVTALYFTFSSLTSVGFSNVSPNTNSEKIFSICVMLIGSLMYASIFGNVSAIIQRLYSGTARYHTQMLRVREFIRFHQIPNPLRQRLEEYFQHAWSYTNGIDMNAVLKGFPECLQADICLHLNRSLLQHCKPFRGATKGCLRALAMKFKTTHAPPGDTLVHAGDLLTALYFISRGSIEILRGDVVVAILGKNDIFGEPLNLYARPGKSNGDVRALTYCDLHKIHRDDLLEVLDMYPEFSDHFWSSLEITFNLRDTNMIPGSPGSTELEGGFSRQRKRKLSFRRRTDKDTEQPGEVSALGPGRAGAGPSSRGRPGGPWGESPSSGPSSPESSEDEGPGRSSSPLRLVPFSSPRPPGEPPGGEPLMEDCEKSSDTCNPLSGAFSGVSNIFSFWGDSRGRQYQELPRCPAPTPSLLNIPLSSPGRRPRGDVESRLDALQRQLNRLETRLSADMATVLQLLQRQMTLVPPAYSAVTTPGPGPTSTSPLLPVSPLPTLTLDSLSQVSQFMACEELPPGAPELPQEGPTRRLSLPGQLGALTSQPLHRHGSDPGS	65	58
truncated G628S KCNH2 (other) MPVRRGHVAPQNTFLDTIIRKFEGQSRKFIIANARVENCAVIYCNDGFCELCGYSRAEVMQRPCTCDFLHGPRTQRRAAAQIAQALLGAEERKVEIAFYRKDGSCFLCLVDVVPVKNEDGAVIMFILNFEVVMEKDMVGSPAHDTNHRGPPTSWLAPGRAKTFRLKLPALLALTARESSVRSGGAGGAGAPGAVVVDVDLTPAAPSSESLALDEVTAMDNHVAGLGPAEERRALVGPGSPPRSAPGQLPSPRAHSLNPDASGSSCSLARTRSRESCASVRRASSADDIEAMRAGVLPPPPRHASTGAMHPLRSGLLNSTSDSDLVRYRTISKIPQITLNFVDLKGDPFLASPTSDREIIAPKIKERTHNVTEKVTQVLSLGADVLPEYKLQAPRIHRWTILHYSPFKAVWDWLILLLVIYTAVFTPYSAAFLLKETEEGPPATECGYACQPLAVVDLIVDIMFIVDILINFRTTYVNANEEVVSHPGRIAVHYFKGWFLIDMVAAIPFDLLIFGSGSEELIGLLKTARLLRLVRVARKLDRYSEYGAAVLFLLMCTFALIAHWLACIWYAIGNMEQPHMDSRIGWLHNLGDQIGKPYNSSGLGGPSIKDKYVTALYFTFSSLTSVGFSNVSPNTNSEKIFSICVMLIGSLMYASIFGNVSAIIQRLYSGTARYHTQMLRVREFIRFHQIPNPLRQRLEEYFQHAWSYTNGIDMNAVLKGFPECLQADICLHLNRSLLQHCKPFRGATKGCLRALAMKFKTTHAPPGDTLVHAGDLLTALYFISRGSIEILRGDVVVAILGKNDIFGEPLNLYARPGKSNGDVRALTYCDLHKIHRDDLLEVLDMYPEFSDHFWSSLEITFNLRDTNMIPGSPGSTELEGGFSRQRKRKLSFRRRTDKDTEQPGEVSALGPGRAGAGPSSRG	70	78
